Assay results taken from paper PMC11515973, “8-Oxoguanine DNA Glycosylase1 conceals oxidized guanine in nucleoprotein-associated RNA of respiratory syncytial virus”.

B1: 8oxo-rG, undenatured (structured_RNA)
RNA: GGGGCAAAUGCAAACAUGUCCAAAAACAAGGACCAACGCA
modifications: single 8-oxoguanine at the end of GGGG
B2: 8oxo-rG:rC (dsRNA)
RNA 1: B1 RNA
RNA 2: UGCGUUGGUCCUUGUUUUUGGACAUGUUUGCAUUUGCCCC
modifications: single 8-oxoguanine at the end of GGGG

Target: OGG1 (ENZ-253, ProSpec) (UniProt O15527 1-345)
Sequence (O15527 whole entry): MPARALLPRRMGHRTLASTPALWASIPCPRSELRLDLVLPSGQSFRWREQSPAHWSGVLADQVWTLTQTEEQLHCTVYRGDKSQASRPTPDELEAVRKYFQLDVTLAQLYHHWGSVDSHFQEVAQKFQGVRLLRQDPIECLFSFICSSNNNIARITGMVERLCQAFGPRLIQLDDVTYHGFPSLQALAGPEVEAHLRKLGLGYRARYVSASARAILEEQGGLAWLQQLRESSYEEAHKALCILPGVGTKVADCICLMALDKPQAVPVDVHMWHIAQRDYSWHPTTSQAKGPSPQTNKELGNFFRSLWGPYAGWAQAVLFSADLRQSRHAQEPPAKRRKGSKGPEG
Assay: EMSA
Details: protein: commercial, label: Cy5

Row | Binder | binding result (predicted secondary structure) | binding result (annealed duplex)
1 | B1 | binds | 
2 | B2 |  | binds
